Consider 140 substances from the supplement of paper PMC12042874.

± gives the uncertainty stated by the source.

The nature of the data set: amyloid nucleation score (Sup35N fusion, yeast selection) (log enrichment); library NNK2; higher = more nucleation; inactive = no reads after selection. The method, boiled down:
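For the nucleation score, DiMSum gave the log enrichment of output over input reads, centred on the mode score of non-aggregating sequences. Psi-negative yeast expressing Sup35N fused to peptides of 20 random codons were induced with 100 μM copper sulfate for 24 hours and grown 7 days at 30°C on medium lacking adenine and uracil. Input and output plasmid inserts were Illumina-sequenced, and sequences with under 100 input reads were excluded.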
DFAFAFVVGTVLAISICVKH: the amyloid nucleation score was -0.459 ± 0.56.

DFFFCFRYTDLEQE displayed an amyloid nucleation score of -0.195 ± 0.61.

For the substance DFMRELYFMGSRPFEMLYMY, the amyloid nucleation score was 0.102 ± 0.77.

As for DFPQCKNTETLL, the amyloid nucleation score came out at 0.279 ± 0.4.

In turn, DFSAFNEGHQINHLIQGSV came in with an amyloid nucleation score of -1.35 ± 0.62.

The substance DFTRYYFYIPHRRVHTVH displayed an amyloid nucleation score of -0.763 ± 0.4.

As for DFYMYSVVDLS, the amyloid nucleation score is -0.767 ± 0.31.

On to DGFHLNALHLESRQLGVGFS, for which the amyloid nucleation score was 3.87 ± 0.069.

In turn, DGFHQCAS displayed an amyloid nucleation score of 3.74 ± 0.089.

Substance DGGREPIVFYSQNYVCNKFV returned an amyloid nucleation score of 6.775 ± 0.048.

DGINLDICCCNTDKLNIDRI: the amyloid nucleation score entry is “inactive”.

DGLFGVTTWNSLFLWILKR: the amyloid nucleation score is -1.1 ± 0.62.

For the substance DGTGYGTSKLTWWRDFLKRC, the amyloid nucleation score was -0.192 ± 0.63.

As for DGVSVPSCRLKRKAVIAGWL, the amyloid nucleation score worked out at 0.662 ± 0.4.

DGYLRYYSNLDG had an amyloid nucleation score of 0.147 ± 1.1.

Regarding DHHDTTHYYIWVDKYKYLV, the amyloid nucleation score is -0.216 ± 0.64.

Take DHLGWHEVTVSLELSFFYRV: the amyloid nucleation score amounted to 4.83 ± 0.11.

For DHLNGASRRMWLLTYFTVFE, the amyloid nucleation score result is “inactive”.

DHRILILLTPQFSYDIWTVH: the amyloid nucleation score result is “inactive”.

Substance DIFITTSSFTLRCAYIIKGI yielded an amyloid nucleation score of -1.44 ± 0.78.

As for DIFLTLEFYISVETKGAKKA, the amyloid nucleation score was found to be 3.92 ± 0.05.

DIGRLTLHGRVSADG registered an amyloid nucleation score of 0.748 ± 0.25.

With DISYGSSDINHCLVTYMWQC, the amyloid nucleation score was 0.192 ± 1.

The substance DIVNLSEDGLSSNELFIARM came in with an amyloid nucleation score of -0.52 ± 1.1.

With DIWIMI, the amyloid nucleation score was -0.225 ± 0.45.

Regarding DKANRDQWHQAKSSVCFGGV, the amyloid nucleation score is 0.089 ± 0.56.

As for DKANTRGGLRCYKMHQFAFV, the amyloid nucleation score was determined as 1.15 ± 0.21.

As for DKDCVGIVLLFGQCVSITLA, the amyloid nucleation score result was “inactive”.

With DKFISLFKRGAHKDVQ, the amyloid nucleation score was -0.42 ± 0.76.

For DKGEEPELIV, the amyloid nucleation score came out at 0.742 ± 0.16.

In turn, DKIVI had an amyloid nucleation score of -0.978 ± 0.54.

The substance DKLVRWHLGMLIGGRGSCLF gave an amyloid nucleation score of 0.294 ± 0.8.

In the case of DKSNLARFTSSKWS, the amyloid nucleation score was found to be 0.426 ± 0.35.

Turning to DKYFLLAYGVWGSLRFLTLC, the amyloid nucleation score is -0.288 ± 1.

DLFVSGTVETFPANWGGMSR showed an amyloid nucleation score of 0.665 ± 0.42.

DLGGQMNYLVLMGNDMWNV returned an amyloid nucleation score of -1.01 ± 0.78.

DLGIYSLTNFKMLPST showed an amyloid nucleation score of 0.544 ± 0.52.

In the case of DLLQREIDRSIVRLWIMEKG, the amyloid nucleation score amounted to 0.252 ± 0.49.

The substance DLRIREMDLGNWSWASR displayed an amyloid nucleation score of 0.653 ± 0.23.

For DLSDIDRCGRLVNRESILLR, the amyloid nucleation score was 1.45 ± 0.5.

In turn, DLSRTRGTEKASRSVWLRSM showed an amyloid nucleation score of 3.97 ± 0.048.

DLVVMSLRR displayed an amyloid nucleation score of 6.18 ± 0.057.

For the substance DLWRY, the amyloid nucleation score amounted to 0.102 ± 0.77.

In the case of DLYRYNMLKDVV, the amyloid nucleation score stood at 4.403 ± 0.037.

As to DLYSSV, the amyloid nucleation score was determined as 0.75 ± 0.41.

With DNDRHNAVALRSSVIVLLGK, the amyloid nucleation score result was “inactive”.

In turn, DNLSGMIPTKTVDSSRP returned an amyloid nucleation score of 0.611 ± 0.81.

Regarding DNMGMRSGSSDLHREVWSHC, the amyloid nucleation score stood at 0.172 ± 0.35.

DNRGKLDWAPSSVVSVWLIC yielded an amyloid nucleation score of 3.74 ± 0.089.

For the substance DPAELQ, the amyloid nucleation score is -0.256 ± 0.79.

In the case of DPWRGGPVSSH, the amyloid nucleation score came to 1.18 ± 0.23.

Regarding DQDSNSFAQSVVSHNVLVNI, the amyloid nucleation score result was “inactive”.

DQEALGRLWYLFAHGSLVTR had an amyloid nucleation score of 0.847 ± 0.44.

The substance DQGVMLFRG showed an amyloid nucleation score of -0.134 ± 0.32.

In turn, DQKAIVMVRNLDAWVGCAHY gave an amyloid nucleation score of 0.266 ± 0.46.

Substance DREVSRVGLD displayed an amyloid nucleation score of 1.29 ± 0.34.

DREWVYYCGYWECTMFRCIY registered an amyloid nucleation score of 1.12 ± 0.16.

For DRFMVMFMLKVGVIVWNYGD, the amyloid nucleation score was determined as 0.262 ± 0.54.

Consider DRGECYDLIGLCHSPVCCYP, for which the amyloid nucleation score was -0.038 ± 0.42.

DRGRSNWFRMMWIDGEHYSE came in with an amyloid nucleation score of -0.492 ± 0.61.

As to DRLLHDTE, the amyloid nucleation score was -0.866 ± 0.76.

As to DRNMSVNI, the amyloid nucleation score was found to be 1.22 ± 0.44.

In turn, DRPGDRSGTAWAWFRCETGG had an amyloid nucleation score of 1.1 ± 0.31.

Take DRSRLGVGGVDVLWFLHSSK: the amyloid nucleation score is 5.328 ± 0.046.

Regarding DRTGGPIWVVGYPARGRAAL, the amyloid nucleation score stood at 0.99 ± 0.29.

As for DRVCAGLKPVRNN, the amyloid nucleation score was found to be 0.836 ± 0.31.

For DRYWLERWSDGNCGRSARIR, the amyloid nucleation score amounted to 1.22 ± 0.4.

In the case of DSGVEMYLFNSRFLRSLGND, the amyloid nucleation score worked out at 3.65 ± 0.052.

With DSIARYCVTYLWCNLHLLVK, the amyloid nucleation score came out at 4.01 ± 0.13.

Take DSLTCCIS: the amyloid nucleation score worked out at 3.37 ± 0.093.

With DSRCIDTVFNWYEHTSSRYR, the amyloid nucleation score was -0.287 ± 0.55.

The substance DSSSVGGVLPVCVNSKSMED showed an amyloid nucleation score of -0.236 ± 0.41.

Turning to DTVALCNWLMRLESFSFAGQ, the amyloid nucleation score was determined as 1.83 ± 0.19.

For the substance DTVISCLGVG, the amyloid nucleation score was -0.087 ± 1.

Take DVDSCW: the amyloid nucleation score stood at 0.554 ± 0.43.

In turn, DVIPRVMIKALT returned an amyloid nucleation score of 0.063 ± 0.56.

In turn, DVKWPYRLDFVKLYYIYKEG came in with an amyloid nucleation score of -1.88 ± 0.53.

As for DVYVVIPNYGPQEWVSNYS, the amyloid nucleation score is -0.341 ± 0.5.

The substance DWFSTLHLIGSAS showed an amyloid nucleation score of -0.041 ± 0.63.

For DWGGVLCATVG, the amyloid nucleation score entry was “inactive”.

DWKNYRMMHVEVWTACRILG came in with an amyloid nucleation score of 0.734 ± 0.81.

The substance DWLYMMKIARSPVVCRSRPS returned an amyloid nucleation score of 0.38 ± 0.35.

In turn, DWQYRLKSVLVFRWQ yielded an amyloid nucleation score of 3.5 ± 0.15.

For DYAFRVYSGIPLKLSNS, the amyloid nucleation score was -0.373 ± 0.65.

The substance DYANELVA had an amyloid nucleation score of 0.099 ± 0.25.

Substance DYDEIMRLMLWSSLLLFR returned an amyloid nucleation score of 0.47 ± 0.34.

For DYIIVRMCADILSGSVHGAM, the amyloid nucleation score is -0.068 ± 0.45.

Consider DYTSCEDVLSVVRPWNYNVE, for which the amyloid nucleation score worked out at 0.714 ± 0.47.

DYVMYPGLVAMLSVSTPSQE displayed an amyloid nucleation score of 0.477 ± 0.49.

Take EAAYLVFSCVMCTFYFEFCF: the amyloid nucleation score came out at 2.55 ± 0.089.

Take EAFNTSCLVFLRNDWYWSGF: the amyloid nucleation score result was “inactive”.

With EALMSSTIYYVPCSRHLIMF, the amyloid nucleation score was -0.576 ± 0.63.

EAWRNLYFGLSRRHRRYGSL yielded an amyloid nucleation score of 1.49 ± 0.18.

In the case of ECERERYLLGTRT, the amyloid nucleation score came out at 0.322 ± 0.25.

Regarding ECGPWKFDRIERDMNAVVER, the amyloid nucleation score turned out to be 2.46 ± 0.17.

On to ECGVLFV, for which the amyloid nucleation score came out at 0.827 ± 0.6.

ECRMRLVFHRSIGYTTQCFV showed an amyloid nucleation score of 3.37 ± 0.064.

For the substance ECYDFYTWESYGLGCTSCEK, the amyloid nucleation score was -0.01 ± 0.43.

As to EDCVMISTCNFLFTINVLEA, the amyloid nucleation score amounted to 6.38 ± 0.065.

EDIIIVQFVV had an amyloid nucleation score of 0.424 ± 0.24.

In turn, EDKNLVWLLCQGEM returned an amyloid nucleation score of 4.43 ± 0.058.

As to EDTMFHNFQWSKAYLCYYWF, the amyloid nucleation score is -0.294 ± 1.1.

In the case of EDVYKRTQRDWDCLILYQRY, the amyloid nucleation score was -0.765 ± 0.76.

The substance EEKDQRLISDSWGMF had an amyloid nucleation score of -0.013 ± 0.56.

EENGCS yielded an amyloid nucleation score of 1.22 ± 0.24.

In turn, EESFYTTPLSVFCVNLRYIV came in with an amyloid nucleation score of -0.383 ± 1.1.

Substance EFANWFVGYNQGSLGHALKQ gave an amyloid nucleation score of 0.355 ± 0.42.

Consider EFGYFYLAMKISTSRYKQNY, for which the amyloid nucleation score is 1.41 ± 0.14.

In the case of EFHVRGDSDGYC, the amyloid nucleation score was -1.41 ± 1.1.

EFLYKLRLSLSMGCGHEELG: the amyloid nucleation score amounted to 4.72 ± 0.061.

The substance EFMLSVRKVVPRIYGNNPRV gave an amyloid nucleation score of 2.78 ± 0.084.

As to EFSRDRSENIAGTPSLRLNQ, the amyloid nucleation score is 4.56 ± 0.049.

For the substance EFWPIITTSRRDMISNLDQG, the amyloid nucleation score is -0.593 ± 0.43.

EGGLYNCYADTPTKVW gave an amyloid nucleation score of -1.07 ± 0.74.

On to EGLIDCCIH, for which the amyloid nucleation score entry is “inactive”.

In the case of EGQSGAILGLMRGTSWVESA, the amyloid nucleation score is 0.984 ± 0.32.

Consider EGTIWRVSW, for which the amyloid nucleation score was 0.392 ± 0.56.

Substance EHIASLVMNAANSTNPVGQK showed an amyloid nucleation score of -0.339 ± 0.76.

Substance EIFFKCGFLLLGCDRPGRVR registered an amyloid nucleation score of 0.413 ± 0.43.

Consider EIIFVMPVFYIFKTLCLLSA, for which the amyloid nucleation score came out at 0.332 ± 0.16.

For the substance EILYFSTAFYLSTWEDTIFT, the amyloid nucleation score result is “inactive”.

EKFESERISFRAMGQGEVLR came in with an amyloid nucleation score of 4.61 ± 0.079.

For the substance EKGVGL, the amyloid nucleation score was -0.449 ± 0.5.

In the case of EKHWSFFTGMSVSHRLFRQN, the amyloid nucleation score entry is “inactive”.

In the case of EKRNVVVHLIGRWSTTLYWV, the amyloid nucleation score amounted to 1.25 ± 0.49.

Take ELALGIHYPFNKLYDINKGC: the amyloid nucleation score was -1.5 ± 0.35.

Take ELGHDYYSCCGFSAREYMEH: the amyloid nucleation score was 4.56 ± 0.065.

As for ELHLFHATPRY, the amyloid nucleation score was determined as 6.61 ± 0.067.

ELTTIG had an amyloid nucleation score of 1.62 ± 0.28.

On to ELVVHFFLFIMGACLHVENQ, for which the amyloid nucleation score was -0.368 ± 1.

In turn, ELVVPQWGQRRVHDLVCVEP yielded an amyloid nucleation score of 1.75 ± 0.29.

ELVYHLSNLKG: the amyloid nucleation score is -0.381 ± 1.1.

In turn, ELYRCA gave an amyloid nucleation score of 0.744 ± 0.22.

Take EMWSISIKISGR: the amyloid nucleation score was determined as 0.763 ± 0.57.

As to EMYRCGWCLWMHNRLTATVR, the amyloid nucleation score came out at 1.86 ± 0.28.

In turn, ENELSPRGCRGEPLA returned an amyloid nucleation score of 0.536 ± 0.62.

ENEWCCLWGRAKRVAGVQEV showed an amyloid nucleation score of 0.495 ± 0.62.

In the case of EPTMVRFDSLFVSDCYMSA, the amyloid nucleation score came out at 0.499 ± 0.4.

Turning to ERDSGPEYIVCIQVVIYLGM, the amyloid nucleation score was 3.06 ± 0.052.

Substance ERFPDCCLFNLDVFVSVLNI returned an amyloid nucleation score of 5.022 ± 0.027.
